Test results taken from PMC4922016, “Loss of flotillin expression results in weakened desmosomal adhesion and Pemphigus vulgaris-like localisation of desmoglein-3 in human keratinocytes” (Scientific Reports, 2016).

T1: GST fusion of the cytoplasmic domain of human desmoglein-3 (human, UniProt P32926 641-999)
T1 construct: cytoplasmic domain of human desmoglein-3, cloned by PCR from HaCaT cells into pGEX-4T1; worked out from the printed primers: the forward primer begins with the codons for LTCDCGA, the reverse primer holds the stop codon (ends DPCSRLI-stop); also called Dsg3 tail; cytoplasmic tail of Dsg3; source: E. coli Rosetta (DE3) pLysS, purified (glutathione sepharose)
T1 sequence (looked up): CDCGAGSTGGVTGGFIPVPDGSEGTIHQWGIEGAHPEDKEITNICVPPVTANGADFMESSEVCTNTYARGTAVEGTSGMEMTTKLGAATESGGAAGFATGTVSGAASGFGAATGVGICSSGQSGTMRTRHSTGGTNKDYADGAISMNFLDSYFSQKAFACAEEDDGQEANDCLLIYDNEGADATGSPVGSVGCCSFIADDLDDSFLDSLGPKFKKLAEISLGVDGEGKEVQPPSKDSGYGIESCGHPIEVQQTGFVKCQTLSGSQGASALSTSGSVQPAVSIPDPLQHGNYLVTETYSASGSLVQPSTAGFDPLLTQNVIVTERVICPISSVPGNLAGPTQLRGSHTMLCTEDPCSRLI

T2: flotillin-1-GST fusion (rat, full length) (rat, UniProt Q9Z1E1 1-428)
T2 construct: full length rat flotillin-1 in the pET41a vector; pET41a may add further tags (His, S-tag) besides GST (surmised); also called Flot-GST; flotillin-GST; source: E. coli Rosetta (DE3) pLysS, purified (glutathione sepharose, eluted with reduced glutathione)
T2 sequence (looked up): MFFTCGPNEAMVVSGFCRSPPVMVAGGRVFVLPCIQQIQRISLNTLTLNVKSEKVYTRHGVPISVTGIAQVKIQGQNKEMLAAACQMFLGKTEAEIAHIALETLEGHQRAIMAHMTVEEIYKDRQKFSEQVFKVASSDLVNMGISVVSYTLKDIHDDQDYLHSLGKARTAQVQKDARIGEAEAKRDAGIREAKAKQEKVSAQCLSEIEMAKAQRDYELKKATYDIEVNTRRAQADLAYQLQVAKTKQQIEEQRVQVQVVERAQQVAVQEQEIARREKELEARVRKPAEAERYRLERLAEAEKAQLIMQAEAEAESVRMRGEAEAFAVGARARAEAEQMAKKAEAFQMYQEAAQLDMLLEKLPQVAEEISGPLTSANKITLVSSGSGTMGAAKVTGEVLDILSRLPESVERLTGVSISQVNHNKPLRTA


Assays:
[1] = molecular target: T1, GST fusion of the cytoplasmic domain of …; test: pull-down; GST-tagged cytoplasmic domains of Dsg1-3 immobilised on glutathione sepharose, HaCaT lysate (1 mg), overnight at 4 °C; 10 mM Tris-HCl pH 8.0, 150 mM NaCl, 5 mM EDTA, 0.5% Triton X-100, 60 mM N-octylglucoside; Western blot; GST as negative control; conditions: one partner purified
[2] = molecular target: T2, flotillin-1-GST fusion (rat, full …); test: pull-down; Dsg3-MBP (5 μg) immobilised on amylose resin, eluted flotillin-GST proteins in solution; 50 mM Tris-HCl pH 7.5, 150 mM NaCl, 0.01% Triton X-100, 1 mM DTT, 1 mM EDTA, 1% BSA, on ice 2-3 h; Western blot; MBP and GST as controls; conditions: both partners purified

Binder | relative amount pulled down (normalised to the fusion protein), against the Dsg1 and Dsg2 pulldowns [1] [fold] | binding result [2]
flotillin-2 (natural protein, human (endogenous in HaCaT), UniProt Q14254 1-428, looked up, flotillin-2, endogenous in human HaCaT keratinocytes; also called Flot-2; source: endogenous, HaCaT lysate) MGNCHTVGPNEALVVSGGCCGSDYKQYVFGGWAWAWWCISDTQRISLEIMTLQPRCEDVETAEGVALTVTGVAQVKIMTEKELLAVACEQFLGKNVQDIKNVVLQTLEGHLRSILGTLTVEQIYQDRDQFAKLVREVAAPDVGRMGIEILSFTIKDVYDKVDYLSSLGKTQTAVVQRDADIGVAEAERDAGIREAECKKEMLDVKFMADTKIADSKRAFELQKSAFSEEVNIKTAEAQLAYELQGAREQQKIRQEEIEIEVVQRKKQIAVEAQEILRTDKELIATVRRPAEAEAHRIQQIAEGEKVKQVLLAQAEAEKIRKIGEAEAAVIEAMGKAEAERMKLKAEAYQKYGDAAKMALVLEALPQIAAKIAAPLTKVDEIVVLSGDNSKVTSEVNRLLAELPASVHALTGVDLSKIPLIKKATGVQV | ~2 | 
flotillin-1 (natural protein, human (endogenous in HaCaT), UniProt O75955 1-427, looked up, flotillin-1, endogenous in human HaCaT keratinocytes; also called Flot-1; source: endogenous, HaCaT lysate) MFFTCGPNEAMVVSGFCRSPPVMVAGGRVFVLPCIQQIQRISLNTLTLNVKSEKVYTRHGVPISVTGIAQVKIQGQNKEMLAAACQMFLGKTEAEIAHIALETLEGHQRAIMAHMTVEEIYKDRQKFSEQVFKVASSDLVNMGISVVSYTLKDIHDDQDYLHSLGKARTAQVQKDARIGEAEAKRDAGIREAKAKQEKVSAQYLSEIEMAKAQRDYELKKAAYDIEVNTRRAQADLAYQLQVAKTKQQIEEQRVQVQVVERAQQVAVQEQEIARREKELEARVRKPAEAERYKLERLAEAEKSQLIMQAEAEAASVRMRGEAEAFAIGARARAEAEQMAKKAEAFQLYQEAAQLDMLLEKLPQVAEEISGPLTSANKITLVSSGSGTMGAAKVTGEVLDILTRLPESVERLTGVSISQVNHKPLRTA | ~2 | 
Dsg3-MBP fusion protein (domain or fragment, human, UniProt P32926 641-999, looked up, cytoplasmic domain of human desmoglein-3, cloned by PCR from HaCaT cells into pMAL-c2X; worked out from the printed primers: the forward primer begins with the codons for LTCDCGA, the reverse primer holds the stop codon (ends DPCSRLI-stop); source: E. coli Rosetta (DE3) pLysS, purified (amylose resin)) CDCGAGSTGGVTGGFIPVPDGSEGTIHQWGIEGAHPEDKEITNICVPPVTANGADFMESSEVCTNTYARGTAVEGTSGMEMTTKLGAATESGGAAGFATGTVSGAASGFGAATGVGICSSGQSGTMRTRHSTGGTNKDYADGAISMNFLDSYFSQKAFACAEEDDGQEANDCLLIYDNEGADATGSPVGSVGCCSFIADDLDDSFLDSLGPKFKKLAEISLGVDGEGKEVQPPSKDSGYGIESCGHPIEVQQTGFVKCQTLSGSQGASALSTSGSVQPAVSIPDPLQHGNYLVTETYSASGSLVQPSTAGFDPLLTQNVIVTERVICPISSVPGNLAGPTQLRGSHTMLCTEDPCSRLI |  | binds
